Reference: article PMC6318328, “Structural insights into trans-histone regulation of H3K4 methylation by unique histone H4 binding of MLL3/4” (Nature Communications, 2019)

Biological target: MLL3 ePHD6 E1097A (human) (UniProt Q8NEZ4)
Test: ITC; peptide (1–2 mM) in the syringe injected into protein (50–100 μM) in the cell; 25 °C; 20 mM Tris pH 7.5, 150 mM NaCl; single-site binding model

## histone H4 peptide H4_(11–21) (from UniProt P62805 12-22)
  fold reduction of binding against the wild type: 2 fold
